According to article PMC5954021:

Test: western blot, TGF-β-treated MCF-10A
Settings: glycan lost, control: control sgRNA cells
In the case of PD-L1: STT3A/3B knockdown, the expression_or_secretion is reported as “decreases”. For PD-L1: STT3B knockdown, the expression_or_secretion was “no change”. For PD-L1: STT3A knockdown, the expression_or_secretion was “no change”.
